The results in this text go back to the supplement of paper PMC12042874.

± gives the uncertainty stated by the source.

The data set is described as follows: amyloid nucleation score (Sup35N fusion, yeast selection) (log enrichment); library NNK1; higher = more nucleation; inactive = no reads after selection. The essentials:
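The nucleation score is the DiMSum log enrichment of output over input reads, centred on the mode score of non-aggregating sequences. Only sequences with 100 or more input reads were scored, using Illumina sequencing of input and output plasmid inserts. Psi-negative yeast expressing Sup35N fused to peptides of 20 random codons were induced 24 hours with 100 μM copper sulfate and grown 7 days at 30°C on medium lacking adenine and uracil.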
In turn, VVCGIPVFNLRYL gave an amyloid nucleation score of -0.495 ± 0.42.

For VVCQSDILDLSMWTMMGVSM, the amyloid nucleation score is -0.823 ± 0.66.

Substance VVCRCTYFRLITGDSSL gave an amyloid nucleation score of -0.136 ± 0.8.

Substance VVCRVNTSVMGFKSNCRLGV registered an amyloid nucleation score of 0.624 ± 0.6.

Turning to VVDVSYRNLRRCM, the amyloid nucleation score came out at 0.8 ± 0.36.

Take VVELASLEGGHELTNWVNLV: the amyloid nucleation score was found to be 0.231 ± 0.59.

As for VVGYRRTMGLVEFSLASVSN, the amyloid nucleation score is -0.806 ± 0.76.

VVKSEVNTVA gave an amyloid nucleation score of 1.27 ± 0.62.

In the case of VVLAMTVRLWC, the amyloid nucleation score is -0.667 ± 1.3.

VVLCSVLTFDPSAEHLCTLV: the amyloid nucleation score turned out to be 6.44 ± 0.066.

As to VVLMLRDVEEFRQ, the amyloid nucleation score is -0.38 ± 0.21.

VVLNCYIYVIPA showed an amyloid nucleation score of 3.39 ± 0.13.

VVMLNFYCIRNRRVWIVNIC yielded an amyloid nucleation score of 3.76 ± 0.058.

Regarding VVNGTMFINPCYVQGRCKEM, the amyloid nucleation score was determined as 4.63 ± 0.067.

On to VVSFLLHPCDFRSWFCGCIW, for which the amyloid nucleation score is -0.226 ± 0.93.

VVSNTGSFSPVRMR registered an amyloid nucleation score of -0.117 ± 0.42.

With VVSWDS, the amyloid nucleation score is -0.015 ± 0.41.

The substance VVTQCLLAAAVHLYCNCHHM returned an amyloid nucleation score of 6.972 ± 0.045.

As for VVTSLIL, the amyloid nucleation score was -0.999 ± 1.2.

For the substance VVTWVYASSVVLSSLPREGA, the amyloid nucleation score was -0.115 ± 0.26.

On to VVWILMSAQNRMAPRFDVLT, for which the amyloid nucleation score turned out to be 1.06 ± 0.51.

With VVYDGIMSWIYYCRFVVDAV, the amyloid nucleation score result was “inactive”.

For the substance VWDSFSHVLVRLGIYLFFYV, the amyloid nucleation score amounted to 0.763 ± 0.42.

With VWFCLCLYM, the amyloid nucleation score was 1.95 ± 0.091.

In turn, VWLRIM came in with an amyloid nucleation score of -0.957 ± 2.4.

In turn, VWMVMSYPDHTLVLLLTG had an amyloid nucleation score of -1.33 ± 0.57.

Turning to VWRSFKSMHSHRSNSNALWL, the amyloid nucleation score worked out at 1.96 ± 0.6.

In turn, VWRTEQ displayed an amyloid nucleation score of -0.533 ± 0.66.

VWRTYVGPVCSMLAG came in with an amyloid nucleation score of 0.641 ± 0.32.

Turning to VYASSCMLGTWLSDSTSGCS, the amyloid nucleation score came out at 0.371 ± 0.69.

Turning to VYATSSIKIAVPVLHQAVLP, the amyloid nucleation score was 3.14 ± 0.096.

In the case of VYESGRCNLACRMFARDGCS, the amyloid nucleation score is -1.38 ± 2.4.

In the case of VYGFDRFKVRRMGESLWWS, the amyloid nucleation score entry was “inactive”.

In turn, VYIHTWIRVKIWSSS displayed an amyloid nucleation score of 1.96 ± 0.65.

VYIYRSVPNTAPAPMIEKKD displayed an amyloid nucleation score of -0.048 ± 1.2.

On to VYKFIFAYYYSEDVPFNRPL, for which the amyloid nucleation score result was “inactive”.

In turn, VYLYMPPIDLL registered an amyloid nucleation score of -0.021 ± 0.46.

On to VYMMGGTLLRPYAILSYLDP, for which the amyloid nucleation score worked out at 0.465 ± 0.3.

Turning to VYNAPGCVNRSDLVV, the amyloid nucleation score was -0.745 ± 2.4.

In turn, VYPWPVERSNFPTSALSYTK yielded an amyloid nucleation score of -0.843 ± 0.6.

VYQKWLG yielded an amyloid nucleation score of -0.778 ± 0.46.

For VYRIAMIF, the amyloid nucleation score was 1.22 ± 0.31.

As to VYRLRLVFKVSYFIIECHKG, the amyloid nucleation score was -0.851 ± 0.4.

VYRNASLCVSEVL came in with an amyloid nucleation score of 0.211 ± 0.97.

In turn, VYRVAKASM came in with an amyloid nucleation score of -0.35 ± 1.9.

Regarding VYWMFV, the amyloid nucleation score came to 0.369 ± 0.3.

In the case of VYYLGVKAFLFNSSF, the amyloid nucleation score came out at 0.824 ± 0.54.

The substance WAFIHSCRYKLTCGGYFYAR returned an amyloid nucleation score of -0.236 ± 1.2.

WAICDSLLVLVSRKGSASSP: the amyloid nucleation score is -1.56 ± 1.4.

Substance WAILLSWGYKGSRAWWFFSI registered an amyloid nucleation score of -0.721 ± 0.49.

Regarding WAMREEVYSNSFSFMFALYW, the amyloid nucleation score was found to be 0.651 ± 0.36.

As for WASELVRHHNDKINCSLRCG, the amyloid nucleation score is -0.253 ± 0.84.

WASTLEDVMRQEKVHLWMIG returned an amyloid nucleation score of -0.242 ± 0.3.

WCKILYAKQERWP had an amyloid nucleation score of 0.677 ± 0.44.

Take WCLESINFRRMCMASSG: the amyloid nucleation score was determined as 0.893 ± 0.41.

WCNNYLSRLCRRVINLEAGL displayed an amyloid nucleation score of -1.13 ± 1.9.

Turning to WCRDLHKLYLY, the amyloid nucleation score was -0.2 ± 0.56.

In turn, WCSTQLVRKIKVFEKSERGV registered an amyloid nucleation score of -1.07 ± 2.1.

Substance WCVFAFMKSQQCK had an amyloid nucleation score of -0.112 ± 0.22.

On to WCVLTSMEAYWFGLSRN, for which the amyloid nucleation score was found to be 0.869 ± 0.54.

With WCVYNFSCALISPY, the amyloid nucleation score turned out to be 6.018 ± 0.054.

The substance WCWLCVKRR gave an amyloid nucleation score of -0.108 ± 0.56.

As to WDATLNKITYKRSLVGSVSK, the amyloid nucleation score amounted to 0.275 ± 0.58.

As to WDDSINCTTK, the amyloid nucleation score entry is “inactive”.

WDFFYLMSMLPRDEVGFL returned an amyloid nucleation score of 0.756 ± 0.46.

Substance WDHQNMNLYYIKYGMVMNQS displayed an amyloid nucleation score of 3.17 ± 0.067.

The substance WDSLDIHQFNKDMWQTSG showed an amyloid nucleation score of -0.909 ± 0.9.

Regarding WDTPFFCPSRNFRRATGPYP, the amyloid nucleation score was found to be 0.983 ± 0.53.

WEVSPIGVPYSY had an amyloid nucleation score of -0.117 ± 0.57.

WFAFIWNNRKCNFRKGTRDV displayed an amyloid nucleation score of 6.11 ± 0.075.

WFFRLLAMSRRTEVAGTSPL yielded an amyloid nucleation score of 0.941 ± 0.65.

Consider WFIAL, for which the amyloid nucleation score was -0.068 ± 0.61.

As to WFMPTSRSKVVYLPSYRCNE, the amyloid nucleation score was determined as 0.432 ± 0.2.

Turning to WFSTDGWKNMSDSLASWSCY, the amyloid nucleation score was 0.863 ± 0.42.

WFSVDFNNHLWFQNSYSMWG yielded an amyloid nucleation score of 0.156 ± 0.43.

As to WFTAHMCDNHYSTIPNSPRQ, the amyloid nucleation score turned out to be 1 ± 0.81.

Take WFTDLRNRGVVNTYTPIV: the amyloid nucleation score is -0.131 ± 0.29.

As to WFVNIEGREEWKYHKGCEPK, the amyloid nucleation score is 0.758 ± 0.49.

For WGFESFSAWATMCERSRWHR, the amyloid nucleation score was determined as 0.428 ± 0.55.

As to WGICDLKVCVQPCPSSNARI, the amyloid nucleation score is -0.059 ± 0.57.

As for WGKLTKQERGWDNDKVNQEC, the amyloid nucleation score stood at 0.094 ± 0.4.

As for WGMCFAVPNISTGLNNYTMP, the amyloid nucleation score is -0.234 ± 0.64.

For WGNLCRNYD, the amyloid nucleation score was determined as 0.004 ± 0.28.

As for WHALVNRGHAWSRIGQDAGC, the amyloid nucleation score was -0.003 ± 0.79.

WHGVFKTRNRLCGTLPWFCA came in with an amyloid nucleation score of -0.143 ± 0.51.

Consider WHQEWRKWADKGLAIRT, for which the amyloid nucleation score is 0.836 ± 0.97.

Substance WHRDVGFTLISVTPFCMMGG came in with an amyloid nucleation score of 1.54 ± 0.33.

Substance WITYHEFWRLTKGCLSFTDL registered an amyloid nucleation score of 0.023 ± 0.55.

WKIRKKA: the amyloid nucleation score came to 0.155 ± 0.7.

Substance WLETRP showed an amyloid nucleation score of -0.226 ± 0.33.

For the substance WLHIPYS, the amyloid nucleation score was 0.547 ± 0.61.

As to WLISLFRDDDRFNKVSKRAA, the amyloid nucleation score was -0.3 ± 0.38.

The substance WLMAKGRYLSAFTVSFIRSY yielded an amyloid nucleation score of -1.28 ± 1.8.

WLPMPSV displayed an amyloid nucleation score of 0.411 ± 0.47.

WLRMYLGINFSVRYCGRRVE returned an amyloid nucleation score of 0.465 ± 0.48.

The substance WLSRSSFMKLCSTKFPRWRL gave an amyloid nucleation score of -0.494 ± 1.1.

WLTNWFEPRWSLVMQSVRCP came in with an amyloid nucleation score of -0.121 ± 0.44.

WLTVITADSMAEGRQACRLP yielded an amyloid nucleation score of 0.132 ± 0.46.

WLVAHAPGH had an amyloid nucleation score of 0.471 ± 0.62.

Regarding WLWIRFIAVTSSSVEIRANS, the amyloid nucleation score was -0.834 ± 0.54.

Substance WMNGGQRSVWMCCMGRMHPW showed an amyloid nucleation score of 7.738 ± 0.054.

WNIRRIRSDTRTLFKCNL displayed an amyloid nucleation score of 0.636 ± 0.32.

In the case of WNNGVLLNRV, the amyloid nucleation score was determined as 0.792 ± 0.41.

Take WNYTGSFFMQYSMGISRRDG: the amyloid nucleation score stood at 1.59 ± 0.2.

Take WQSCWIWTKCRTVDVRRKKD: the amyloid nucleation score is -0.598 ± 0.43.

On to WRCRGCMWAHRAWGNSSCV, for which the amyloid nucleation score is -0.655 ± 0.98.

WRICLQCRAYPLRTTGGQRQ returned an amyloid nucleation score of 0.444 ± 0.69.

In turn, WRIEACFSNFARTIFLVSGW gave an amyloid nucleation score of -0.399 ± 0.3.

For WRMFGGRSEQSFIVPCRLLG, the amyloid nucleation score stood at 0.535 ± 1.2.

Regarding WRWYEGGLTLSWSHASSA, the amyloid nucleation score was -0.536 ± 0.98.

On to WSATSATMLQSLPVQEEHVD, for which the amyloid nucleation score is -0.38 ± 0.83.

In turn, WSCCAEERVTWGPAEMLLWG registered an amyloid nucleation score of -1.05 ± 2.7.

For WSDYVDNPSVSARRSRQFRL, the amyloid nucleation score was -1.21 ± 1.6.

Take WSFTK: the amyloid nucleation score was -0.284 ± 0.68.

Regarding WSKCNVRMCWH, the amyloid nucleation score was -0.122 ± 0.64.

WSLLCDCASGQCVMR yielded an amyloid nucleation score of 0.005 ± 0.44.

In turn, WSLPAVRRCHNELEYCNTRR registered an amyloid nucleation score of 0.107 ± 0.34.

Regarding WSRMGLAILRFFKYLS, the amyloid nucleation score came to 0.093 ± 0.36.

Substance WSTHRQESFALYSKCMEVRR registered an amyloid nucleation score of 0.186 ± 0.28.

In turn, WTLRYRSARLVACMINTDEM yielded an amyloid nucleation score of 1.68 ± 0.46.

In turn, WTSIV came in with an amyloid nucleation score of 1.38 ± 0.47.

As for WTVSSVIGNGWQCNRSYG, the amyloid nucleation score was 0.247 ± 0.27.

The substance WVAWTYMENLSCLYFETATM returned an amyloid nucleation score of -0.593 ± 0.57.

On to WVGQVLGREENCASASSFSE, for which the amyloid nucleation score was -1.89 ± 2.7.

Consider WVHMFMHDYNMRYTFSVYMC, for which the amyloid nucleation score result was “inactive”.

Regarding WVLTVVFVDKWREAYMYATF, the amyloid nucleation score entry is “inactive”.

As to WVQGRRTFLVGWRGSQRGPI, the amyloid nucleation score is -0.995 ± 0.81.

Take WVTSSAFEE: the amyloid nucleation score was found to be 0.277 ± 0.7.

WWGWKIDTNAQILARLCKCL: the amyloid nucleation score was -0.005 ± 1.2.

On to WWLFHVFLLKRQSITNAGVR, for which the amyloid nucleation score result is “inactive”.

Substance WWYYNRRWLVTCKSVYGLGM registered an amyloid nucleation score of -0.34 ± 0.37.

As to WYGDSPECEV, the amyloid nucleation score was 0.141 ± 0.73.

For the substance WYQLVVVEQGSTLYS, the amyloid nucleation score was 0.341 ± 0.68.

Turning to WYRTRIQRRIFFNRAIYSTA, the amyloid nucleation score was determined as 0.368 ± 0.85.

Take YALGVAFSQNSYDT: the amyloid nucleation score stood at 0.669 ± 0.63.

The substance YCAKNCEGFGRVYISG registered an amyloid nucleation score of -2.42 ± 2.7.

With YCFSSSYVWHNRDGSINMFK, the amyloid nucleation score result was “inactive”.

YCIYVGFDLMCLSVWNGHRS: the amyloid nucleation score was -1.39 ± 0.66.

For the substance YCLDGAFALVVNSLWLITAA, the amyloid nucleation score result is “inactive”.

Turning to YCTCRLVKFEVDW, the amyloid nucleation score result is “inactive”.
